The record followed here is publication PMC11211662, “A novel alcohol dehydrogenase in the hyperthermophilic crenarchaeon Hyperthermus butylicus” (mLife, 2024).

A word on the Km: it is the substrate concentration at which the rate is half of its maximum. One may read the kcat as the maximal rate divided by the concentration of active sites. The kcat/Km is the turnover number divided by the Michaelis constant.

Common to all, as to experiment: purified protein
Substrate in data set [1]: CC(C)O
The conditions noted are these: oxidation, 0.4 mM NADP+, 100 mM EPPS pH 9.0, 80 °C, anaerobic.

Substrate in data set [2]: CCO
The conditions noted are these: oxidation, 0.4 mM NADP+, 100 mM EPPS pH 9.0, 80 °C, anaerobic.

Substrate in data set [3]: CC(C)=O
In kind it is biochemical, Hyperthermus butylicus. The conditions noted are these: reduction, 0.2 mM NADPH, 100 mM PIPES pH 6.0, 80 °C, anaerobic, pH 6.0.

Substrate in data set [4]: CC=O
The format is biochemical, Hyperthermus butylicus. The conditions noted are these: reduction, 0.2 mM NADPH, 100 mM PIPES pH 6.0, 80 °C, anaerobic, pH 6.0.

Substrate in data set [5]: CCC=O
The format is biochemical, Hyperthermus butylicus. The conditions noted are these: reduction, 0.2 mM NADPH, 100 mM PIPES pH 6.0, 80 °C, anaerobic, pH 6.0.

Substrate in data set [6]: CCCC=O
In kind it is biochemical, Hyperthermus butylicus. The conditions noted are these: reduction, 0.2 mM NADPH, 100 mM PIPES pH 6.0, 80 °C, anaerobic, pH 6.0.

Substrate in data set [7]: CCCCO
In kind it is biochemical, Hyperthermus butylicus. The conditions noted are these: oxidation, 0.4 mM NADP+, 100 mM EPPS pH 9.0, 80 °C, anaerobic, pH 9.0.

Substrate in data set [8]: CCCO
The format is biochemical, Hyperthermus butylicus. The conditions noted are these: oxidation, 0.4 mM NADP+, 100 mM EPPS pH 9.0, 80 °C, anaerobic, pH 9.0.

B1: HbADH2 (Hyperthermus butylicus DSM 5456) (protein)
chain: MLRRLQSSLRDYVRKYIVRLNCNAGGTTCKPSSTECQRFLAEPNLPQALLLAGYRLLDCTCSSGGGVSIELVGTSGDTIPARLCLDCGSIFPALTLKAQLPLSTSIPPYRGPIQEAMLKTVETIAQFCAHRKGLPLLLDTVLAEPARMCKVKLGCRPIHISSFEKADLGTVSPRIKLPTILSWITLRLRKSIEIEAPWLCVESNNGALQLVCLSETCRFEVTHCGSVRLIHGKAIALPSSTRCSPALLHLVYLYGTLYKSIDDVNVKPCIWSMTGLAILGAWYSTGENGESMMLLVWNPLKKSKLHEIVFERHRIVEAKLTSPATWLEEQLIPQYNRLRIPLPPHGARLVYVRLRKLPRLLSKNANG
notes: native protein purified anaerobically from H. butylicus cell-free extract (DEAE-Sepharose, hydroxyapatite, phenyl-Sepharose); untagged; 367 residues deduced, 40,694 Da calculated; gene assigned by mass spectrometry of the gel band, not by recombinant expression
As for B1, the Km in “purified protein [1]” was determined as 3740 ± 460 µM; in the data set “purified protein [2]” it was 4360 ± 420 µM; in the data set “purified protein [3]” it was 680 ± 40 µM; in “purified protein [4]”, 1270 ± 180 µM; in “purified protein [5]”, 1550 ± 200 µM; in the data set “purified protein [6]” it was 590 ± 70 µM. In addition, the Km in the data set “purified protein [7]” worked out at 2440 ± 300 µM; in “purified protein [8]”, 4690 ± 410 µM. Further, the kcat in “purified protein [1]” stood at 3.47 s⁻¹; in “purified protein [2]” it was 4 s⁻¹; in “purified protein [3]”, 3.84 ± 0.06 s⁻¹; in “purified protein [4]”, 7 ± 0.31 s⁻¹; in the data set “purified protein [5]”, 1.79 ± 0.07 s⁻¹; in the data set “purified protein [6]”, 8 ± 0.22 s⁻¹. Moreover, the kcat in “purified protein [7]” was determined as 6.84 ± 0.24 s⁻¹; in the data set “purified protein [8]”, 4.4 ± 0.12 s⁻¹. Also, the kcat/Km stood at 928 M⁻¹ s⁻¹ in the data set “purified protein [1]”; 915 M⁻¹ s⁻¹ in “purified protein [2]”; 8070 ± 1520 M⁻¹ s⁻¹ in the data set “purified protein [3]”; 5510 ± 1720 M⁻¹ s⁻¹ in “purified protein [4]”; 1160 ± 338 M⁻¹ s⁻¹ in “purified protein [5]”; 13600 ± 3140 M⁻¹ s⁻¹ in “purified protein [6]”. In addition, the kcat/Km in “purified protein [7]” was found to be 2800 ± 814 M⁻¹ s⁻¹; in “purified protein [8]” it was 938 ± 293 M⁻¹ s⁻¹.
